Sequences and labels used below:
T1: ECF22_1147
T1 chain: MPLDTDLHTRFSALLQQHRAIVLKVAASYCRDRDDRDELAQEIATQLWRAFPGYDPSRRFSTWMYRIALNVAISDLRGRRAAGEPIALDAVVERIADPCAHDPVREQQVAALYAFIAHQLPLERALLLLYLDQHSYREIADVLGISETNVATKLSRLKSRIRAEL

T2: ECF25_1643
T2 chain: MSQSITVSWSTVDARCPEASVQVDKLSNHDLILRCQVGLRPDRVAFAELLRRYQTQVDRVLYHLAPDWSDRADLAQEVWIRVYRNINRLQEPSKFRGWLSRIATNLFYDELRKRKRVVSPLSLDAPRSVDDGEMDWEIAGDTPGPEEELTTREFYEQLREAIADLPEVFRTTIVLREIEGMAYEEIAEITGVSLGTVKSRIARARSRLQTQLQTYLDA

T3: ECF22_4450
T3 chain: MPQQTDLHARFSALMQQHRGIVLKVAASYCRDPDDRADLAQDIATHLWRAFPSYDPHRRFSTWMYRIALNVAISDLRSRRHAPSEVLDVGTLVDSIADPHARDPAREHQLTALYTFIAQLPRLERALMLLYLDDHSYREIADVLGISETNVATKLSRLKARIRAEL

T4: ECF17_1691
T4 chain: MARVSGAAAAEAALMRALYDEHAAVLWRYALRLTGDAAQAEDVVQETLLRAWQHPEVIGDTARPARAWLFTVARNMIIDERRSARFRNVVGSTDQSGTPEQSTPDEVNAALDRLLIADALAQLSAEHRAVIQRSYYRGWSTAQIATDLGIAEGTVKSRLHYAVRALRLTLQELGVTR

T5: ECF12_807
T5 chain: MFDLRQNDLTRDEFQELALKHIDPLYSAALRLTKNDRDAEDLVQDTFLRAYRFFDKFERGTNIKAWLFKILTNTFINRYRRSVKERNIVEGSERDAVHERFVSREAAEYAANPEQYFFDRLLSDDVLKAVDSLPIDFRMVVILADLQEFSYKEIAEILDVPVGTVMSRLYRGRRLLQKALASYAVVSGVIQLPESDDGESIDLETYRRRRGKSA

T6: ECF20_992
T6 chain: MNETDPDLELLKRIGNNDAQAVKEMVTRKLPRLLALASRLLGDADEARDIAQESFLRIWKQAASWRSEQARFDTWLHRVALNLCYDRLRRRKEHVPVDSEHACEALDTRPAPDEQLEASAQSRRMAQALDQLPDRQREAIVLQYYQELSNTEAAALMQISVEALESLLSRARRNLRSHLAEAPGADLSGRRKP

T7: ECF02_915
T7 chain: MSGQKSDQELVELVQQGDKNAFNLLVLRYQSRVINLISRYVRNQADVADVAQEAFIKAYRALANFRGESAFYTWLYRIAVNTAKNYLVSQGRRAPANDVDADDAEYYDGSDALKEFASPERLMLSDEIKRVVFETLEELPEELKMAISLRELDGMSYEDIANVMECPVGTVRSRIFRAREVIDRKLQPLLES

T8: ECF01_3473
T8 chain: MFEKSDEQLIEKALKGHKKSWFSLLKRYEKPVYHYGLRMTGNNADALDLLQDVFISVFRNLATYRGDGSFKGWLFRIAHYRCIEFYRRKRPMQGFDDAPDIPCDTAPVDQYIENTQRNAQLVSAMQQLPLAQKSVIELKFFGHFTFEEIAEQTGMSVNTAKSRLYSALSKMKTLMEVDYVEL

T9: ECF31_34
T9 chain: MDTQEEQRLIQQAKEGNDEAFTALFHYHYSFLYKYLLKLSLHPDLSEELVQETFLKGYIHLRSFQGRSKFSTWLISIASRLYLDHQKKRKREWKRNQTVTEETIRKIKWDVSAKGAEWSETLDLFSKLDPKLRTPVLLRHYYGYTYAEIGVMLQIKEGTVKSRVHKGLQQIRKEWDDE

T10: ECF17_1458
T10 chain: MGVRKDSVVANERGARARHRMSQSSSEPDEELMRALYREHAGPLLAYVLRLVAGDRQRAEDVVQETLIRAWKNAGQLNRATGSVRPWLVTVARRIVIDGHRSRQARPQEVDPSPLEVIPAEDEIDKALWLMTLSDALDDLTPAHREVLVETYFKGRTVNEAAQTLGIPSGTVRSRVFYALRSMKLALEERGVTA

T11: ECF11_987
T11 chain: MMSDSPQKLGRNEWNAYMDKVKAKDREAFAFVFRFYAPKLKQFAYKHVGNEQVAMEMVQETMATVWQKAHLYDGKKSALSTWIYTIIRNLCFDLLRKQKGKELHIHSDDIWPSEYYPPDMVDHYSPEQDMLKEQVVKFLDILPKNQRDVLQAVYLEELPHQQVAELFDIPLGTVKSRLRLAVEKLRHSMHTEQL

T12: ECF15_436
T12 chain: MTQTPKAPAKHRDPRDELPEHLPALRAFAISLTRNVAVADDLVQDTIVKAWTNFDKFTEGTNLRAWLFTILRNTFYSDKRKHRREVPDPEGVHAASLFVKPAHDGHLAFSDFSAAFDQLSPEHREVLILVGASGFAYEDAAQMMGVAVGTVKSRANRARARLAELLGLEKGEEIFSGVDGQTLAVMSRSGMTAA

T13: ECF14_1324
T13 chain: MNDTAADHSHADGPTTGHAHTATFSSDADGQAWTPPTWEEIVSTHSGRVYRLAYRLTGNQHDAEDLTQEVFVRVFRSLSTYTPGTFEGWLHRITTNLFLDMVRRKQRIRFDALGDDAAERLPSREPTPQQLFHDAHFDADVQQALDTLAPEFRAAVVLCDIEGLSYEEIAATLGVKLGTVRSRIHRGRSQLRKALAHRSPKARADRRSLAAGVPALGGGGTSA

T14: ECF35_3582
T14 chain: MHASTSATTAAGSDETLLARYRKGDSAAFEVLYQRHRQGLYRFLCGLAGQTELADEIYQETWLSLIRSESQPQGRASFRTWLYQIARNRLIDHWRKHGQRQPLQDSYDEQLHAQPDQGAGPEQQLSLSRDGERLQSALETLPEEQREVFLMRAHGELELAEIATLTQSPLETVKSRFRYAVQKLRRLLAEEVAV

B1: AS27_4265 (protein)
chain: MTGHPDVAEIADLAEGLLPTTRTTEVRQHLESCELCADVYASLTEIQGLLGTLPAPAPMPDDVAARIDAALAAEPPLGIADGTRVSRETSTPADRPAGHARPSSTGPGRKDRRRGGRRRIAVLGAVAAAAAIGIGSVVVSSLTEDSSSGNTAREQQTAIADTFSEGRLKDRVTNLVADGSAENGSRTPRSFGMESENGGETAENHVFKQPTVPECIRKGIGRDDAVIATEPGVYKGREALLVVLPDATNDTQVTAYIVETACVDQPAVGKAKILLEHSYARS
B2: AS30_35 (protein)
chain: MDKRLQQLREEYKNVQIPKELDIIVEKALQQEPKKKRIVMWPTSAAIAAAILFTALVNINPDAAQAMSKIPVIGKIVKAITFIEIKEEKDQSSIDVKTPALSGLSNKELENSINEKYLKESQQLYKEFIQSTSKNKKGHLSIYSDYETVTDTPDLLSIRRNIETTQASSYTQSRYITIDKKNDILLTLKSLFKDERYIKVISQNIKEQMKQQMKEDPNKIYWLTDEDAEPFKTILPDQTFYITEDHKLVISFDEYEVAPGYMGVTEFTIPTGVISNLLVGERYIR
B3: AS25_1645 (protein)
chain: MNESFSQRQTDGDRRRGGDLEMKKNHTSHQHHTDSETPMGHNFEQFQRLSAYFDGEATPAERKEIQHLLDTDPQVKQQYQQLRQLKQALQLLPIPTSISAQYLGQRVLARLRRSQLRTLSLWGSGAIAALFVAGVMGQMPRLNFDRFAKNDPDQQPTAALVETSPQGEEALVVALNRPVLQIPKLATTESP
B4: AS27_1331 (protein)
chain: MSAADKDPDKHSADADPPLTVELLADLQAGLLDDATAARIRSRVRSDPQAQQILRALNRVRRDVAAMGADPAWGPAARPAVVDSISAALRSARPNSSPGAAHAARPHVHPVRMIAGAAGLCAVATAIGVGAVVDAPPPAPSAPTTAQHITVSKPAPVIPLSRPQVLDLLHHTPDYGPPGGPLGDPSRRTSCLSGLGYPASTPVLGAQPIDIDARPAVLLVIPADTPDKLAVFAVAPHCSAADTGLLASTVVPRA
B5: AS31_34 (protein)
chain: MNKEKLSDHLKSEWKKIDQTANPSIPNQKELLHQLSQMKAEYRKKLLQEIILFVFCALMVVSAAILAFTQAPAVFIVLQVCVLAVLPILIAAEKKRHLGECEVKRG

Where “and” joins values, the source holds several entries; their conditions need not be identical. Equal values may be shown once.

One test addresses T1, ECF22_1147.
For B1, the fold repression came to 8.51.
In the case of B2, the fold repression was determined as 2.12.
Regarding B3, the fold repression turned out to be 7.04.
In the case of B4, the fold repression came to 2.2.
On to B5, for which the fold repression was found to be 3.62.

A further test has as its target T2, ECF25_1643.
As to B1, the fold repression was 1.63 and 1.17.
Consider B2, for which the fold repression is 1.46 and 1.19.
B3: the fold repression is 19.5 and 19.2.
For B4, the fold repression is 2.81 and 2.4.
As for B5, the fold repression is 2.25 and 1.91.

For the next test, the target named is T3, ECF22_4450.
For the molecule B1, the fold repression turned out to be 4.03.
Regarding B2, the fold repression was found to be 2.21.
Still for that read-out and setting: with B3 the figure was 9.86; with B4, 5.86; with B5, 3.59.

The target of a further test is T4, ECF17_1691.
On to B1, for which the fold repression was 2.82.
On to B2, for which the fold repression came out at 1.6.
In turn, B3 registered a fold repression of 4.24.
The same measure, in the same setting: with B4 the figure was 2.09; with B5, 2.93.

The next test addresses T5, ECF12_807.
Regarding B1, the fold repression came to 8.59.
Take B2: the fold repression was 3.12.
B3 came in with a fold repression of 9.09.
Still for that read-out and setting: to B4 belongs 2.07.
B5 registered a fold repression of 3.66.

In another test the target is T6, ECF20_992.
B1 had a fold repression of 15.2.
With B2, the fold repression was 2.34.
Regarding B3, the fold repression turned out to be 5.73.
In turn, B4 gave a fold repression of 6.81.
On the same count and under the same terms, with B5 the figure was 2.35.

A further test concerns the target T7, ECF02_915.
In turn, B1 had a fold repression of 2.41.
The molecule B2 came in with a fold repression of 2.15.
Molecule B3 showed a fold repression of 6.91.
For the molecule B4, the fold repression was found to be 2.72.
B5 registered a fold repression of 1.32.

For another test, the target named is ECF26_4464.
Regarding B1, the fold repression is 5.53.
Turning to B2, the fold repression was found to be 2.19.
For the molecule B3, the fold repression is 15.3.
Molecule B4 yielded a fold repression of 3.61.
As to B5, the fold repression was 3.63.

The target of a further test is T8, ECF01_3473.
B1: the fold repression was determined as 3.99.
Turning to B2, the fold repression was 1.65.
Regarding B3, the fold repression is 7.11.
Molecule B4 displayed a fold repression of 2.69.
Still for that read-out and setting: to B5 belongs 1.76.

In the next test the target is T9, ECF31_34.
In the case of B1, the fold repression was 1.67.
Still for that read-out and setting: with B2 the figure was 2.22; with B3, 5.66.
B4: the fold repression is 5.7.
On the same count and under the same terms, to B5 belongs 22.7.

For a further test, the target named is T10, ECF17_1458.
The molecule B1 had a fold repression of 2.47.
B2 registered a fold repression of 1.52.
The same measure, in the same setting: with B3 the figure was 7.18.
B4 gave a fold repression of 2.79.
In turn, B5 displayed a fold repression of 4.02.

In the next test the target is T11, ECF11_987.
As to B1, the fold repression turned out to be 5.93.
As for B2, the fold repression came to 2.11.
The same measure, in the same setting: to B3 belongs 8.87; to B4, 5.69.
In turn, B5 had a fold repression of 3.03.

In the next test the target is T12, ECF15_436.
As to B1, the fold repression is 3.65.
In the case of B2, the fold repression turned out to be 1.98.
The molecule B3 displayed a fold repression of 8.62.
B4: the fold repression was 4.26.
For the molecule B5, the fold repression came to 2.54.

The target of a further test is T13, ECF14_1324.
As for B1, the fold repression worked out at 3.08.
Molecule B2 had a fold repression of 1.7.
Still for that read-out and setting: to B3 belongs 18.7.
Regarding B4, the fold repression stood at 5.93.
B5 came in with a fold repression of 6.35.

Another test concerns the target T14, ECF35_3582.
For the molecule B1, the fold repression amounted to 1.97.
Consider B2, for which the fold repression was found to be 6.57.
B3 showed a fold repression of 2.98.
With B4, the fold repression is 5.79.
B5 had a fold repression of 2.06.
